Measurements published in patent US20070141048A1 (SYMPHOGEN A S, published 2007).
Where a chain is given by its changes, count along the chain named.

T1: Ovalbumin (UniProt P01012 2-386)
T1 sequence: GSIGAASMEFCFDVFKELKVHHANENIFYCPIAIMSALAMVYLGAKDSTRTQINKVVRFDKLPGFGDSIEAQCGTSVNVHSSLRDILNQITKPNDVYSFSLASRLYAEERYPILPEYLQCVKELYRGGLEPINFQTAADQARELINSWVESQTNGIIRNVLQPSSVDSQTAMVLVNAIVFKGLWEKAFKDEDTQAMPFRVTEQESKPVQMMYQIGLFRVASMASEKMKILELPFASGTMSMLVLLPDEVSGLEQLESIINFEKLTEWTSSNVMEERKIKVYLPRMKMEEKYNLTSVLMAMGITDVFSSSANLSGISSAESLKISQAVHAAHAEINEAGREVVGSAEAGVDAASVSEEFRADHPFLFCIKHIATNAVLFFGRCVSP

B1: g060c03 (Fab, V domains shown)
VH: KVQLVESGGGLVKPGGSLRLSCAASGSSFSNNNMNWVRQTPGKGLEWVASISFGSHYISYADSVKGRFTISRDNARNAVYLQMNSLRVEDTAVYYCTRCRGGTRTYYYMDVWGKGTLVTVS
VL: EIVMTQSPGTLALSPGDRATLSCGASQSVFGDFLAWYQHKPGQAPRLLIYGASTRATGIPDRFSGSGAGTDFTLTISRLEPEDFAVYFCQQYGDSVFTFGQGTKLEIK
B2: g060f06 (Fab, V domains shown)
VH: B1 VH with K1Q, V5Q, E6Q, S27F
VL: B1 VL with L47P
B3: g060b12 (Fab, V domains shown)
VH: B1 VH with K1Q, E6Q, S27F
VL: B1 VL with M4L, E106G
B4: g060d08 (Fab, V domains shown)
VH: B1 VH with S27F, L117M
VL: B1 VL with E1D, I2V, G51V, K108R
B5: g060d03 (Fab, V domains shown)
VH: QMQLVQSGAEVKKPGTSVRVSCKTSGGYVFSWVRQAPGQGPEWMGGIITNFGTTNYAQKFQGRVTITADKSTNTVYMDLSNLTSEDTAVYYCARAPRGTSTIAARFNRYFFDSWGQGTLVTVS
VL: DIQMTQSPGTLSLSPGERATLSCRASQSVNSDNLAWYQQKPGQAPRLLMSGATSRATDVPDRFSGSGSGTDFTLTISRLEPEDFAVYYCHQYGSSDNTFGQGTKLEIK
B6: g060b05 (Fab, V domains shown)
VH: B5 VH with M2V, P14L, S25P, Q58R, V64I, I66V, T83A
VL: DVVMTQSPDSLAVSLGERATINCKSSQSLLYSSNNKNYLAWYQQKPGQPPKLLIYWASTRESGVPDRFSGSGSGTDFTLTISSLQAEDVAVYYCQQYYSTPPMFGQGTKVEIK
B7: g060f02 (Fab, V domains shown)
VH: KVQLVQSGAEVKKPGTSVRVSCKTSGGYVFSWVRQAPGHGPEWMGGIITNFGTATYAQKFQGRVSITADTSTNTFYMDLNNLKSDDTAVYYCASAPRDTSTIAARFNRYFFDFWGPGTLVTVS
VL: B5 VL with I2V, Q3V, D32N, M49V, S54N, V59I, D96E, K108R
B8: g060b07 (Fab, V domains shown)
VH: B5 VH with Q1E, M2V, Q6E, N50S, N55S, S71A, N81D, V89I, R94K
VL: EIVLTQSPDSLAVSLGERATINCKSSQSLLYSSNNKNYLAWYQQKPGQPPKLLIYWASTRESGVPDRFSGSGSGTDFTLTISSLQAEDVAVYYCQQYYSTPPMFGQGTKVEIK
B9: g060f08 (Fab, V domains shown)
VH: B5 VH with Q1K, M2V
VL: B5 VL with I2V, Q3V, V59I
B10: g060d07 (Fab, V domains shown)
VH: B5 VH with Q1E, M2V, S25P, Q58R, V64I, I66V, T83A
VL: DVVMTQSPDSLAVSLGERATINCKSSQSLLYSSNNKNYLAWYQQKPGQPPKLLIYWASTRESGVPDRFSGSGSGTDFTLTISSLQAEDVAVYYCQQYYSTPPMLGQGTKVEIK
B11: g060f04 (Fab, V domains shown)
VH: B5 VH with Q1K, M2V, S25P, Q58R, V64I, I66V, T83A
VL: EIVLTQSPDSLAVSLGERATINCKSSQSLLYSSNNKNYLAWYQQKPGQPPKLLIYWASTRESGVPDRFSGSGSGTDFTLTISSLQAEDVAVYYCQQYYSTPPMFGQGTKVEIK
B12: g060h11 (Fab, V domains shown)
VH: QVTLKESGPTVVKPTQTLTLTCSLSGFALGTTGVAVGWIRQPPGKALEWLGLIDWNDDRRYRPSLKTRLTITQDMSRNQVVLRLTNLDPLDTGTYFCARSVVPATRAFDFWGQGTLVTVS
VL: DIQMTQSSSTLSASVGDRVTITCRASQNINIWLAWYQQKAGKAPKLLIYKASTLERGVPSRFSGSGSGTEFTLTITGLRPDDFGSYYCQHYDGNSLTFGQGTRVDIQ
B13: g060g07 (Fab, V domains shown)
VH: QVQLQQSGPGLVKPSETLPLTCTVSGGSFSTYYWSWIRQSPEKGLEWIGYIQNSVNTNYNPSLKSRVIISVDTSNNQFSLKLRSVTAADTAVYYCARVSGWGPRGGIYFDYWGQGTLVTVS
VL: DIQMTQSPSSLSASVSDRVTITCRASQSINKFLNWYQQKPGKAPQLLIYAATNLQSGVPSRFSGSGSGTDFTLTISSLQTEDFATYYCQQSYDMPRTFGQGTKVEIK
B14: g060b06 (Fab, V domains shown)
VH: QVQLQESGGGVVQPGTSLRLSCVVSGFTFRTYGMNWVRQAPGKVLEWLAFVSSDGSDEFYADSVKGRFTVSRDNSKSTLFLKMNSLRADDTAVYYCARDRGAQITLFGAPLIRPSSFDSWGQGTLVTVS
VL: EIVLTQSPSSLSASVGDRITITCQASQDITNYLNWYQQKPGKAPKLLIYDASNLQPGVPSRFSGSRSGTDFTFTISSLRPEDIATYYCQQYDGPVLTFGGGTKVEIK
B15: g060a04 (Fab, V domains shown)
VH: B14 VH with Q1K, Q5V, V44G, V51L, A88P
VL: B14 VL with E1D, I2V, L4M, I19V, R66G, G68V
B16: g060b10 (Fab, V domains shown)
VH: KVQLVESGAEVKKPGATVRVSCKASGYRFNDYCISWVRQAPGQGLEWMGWINGNNADTFYAPKLQGRVTMSTDTSTSTAYMELRNLRSDDTAVYFCARDRGRITLFGEVILRAGWFDSWGQGTLVTVS
VL: EIVMTQSPSSLSASVGDRVTITCQASQDISKYLNWYQQKPGRAPKLLIYEASNLETGVPPRFSGSGSGTHFTFTITGLQPEDIATYYCQQCDSLPPVFGQGTKLEVK
B17: g060c04 (Fab, V domains shown)
VH: QMQLVQSGAEVKKPGSSVKVSCQSSGGPPKSYTLSWVRQAPGQGPEWMGGIILIFGPPNYAQKFQDRLTITADKSTNTVYMELSSLRSDDTAMYYCVTAPDDTGTILARHNRYYFDSWGQGTLVTVS
VL: EIVLTQSPGTLSLSPGQRATLSCRASQSVNRDYLAWYQQKPGQAPRLLIYGASSRATGIPDRFSGSGSGTDFTLTISRLERDDFAVYFCHQYGSSPNTFGQGTKLEIK
B18: g060e05 (Fab, V domains shown)
VH: QVQLVESGAEVKKPGSSVKVSCKSSGGYVFSWVRQAPGQGLEWMGGIISNFRTAEYARKFQGRVTMTADTSTNTIYMELTSLTSEDTAVYFCVSAPRDTSTIAARFNRYFFDTWGQGTLVTVS
VL: EIVLTQSPGTLSLSPGERATLSCRASRSVNSNNLAWYQQKPDQAPRLLMYGASSRATGIPDRFTGSGSGTDFTLTISRLEPEDFAVYYCHQYGASDNTFGQGTKLEIK
B19: g060g09 (Fab, V domains shown)
VH: B18 VH with Q1K, E6Q, R52H, R58Q
VL: B18 VL with N30Y

Target: T1, Ovalbumin
Assay: ELISA, periplasmic extract on coated Ovalbumin

Row | Binder | binding result
1 | B1 | no binding (tested: 10 µg/ml Ovalbumin coat)
2 | B2 | no binding (tested: 10 µg/ml Ovalbumin coat)
3 | B3 | no binding (tested: 10 µg/ml Ovalbumin coat)
4 | B4 | no binding (tested: 10 µg/ml Ovalbumin coat)
5 | B5 | no binding (tested: 10 µg/ml Ovalbumin coat)
6 | B6 | no binding (tested: 10 µg/ml Ovalbumin coat)
7 | B7 | no binding (tested: 10 µg/ml Ovalbumin coat)
8 | B8 | no binding (tested: 10 µg/ml Ovalbumin coat)
9 | B9 | no binding (tested: 10 µg/ml Ovalbumin coat)
10 | B10 | no binding (tested: 10 µg/ml Ovalbumin coat)
11 | B11 | no binding (tested: 10 µg/ml Ovalbumin coat)
12 | B12 | no binding (tested: 10 µg/ml Ovalbumin coat)
13 | B13 | no binding (tested: 10 µg/ml Ovalbumin coat)
14 | B14 | no binding (tested: 10 µg/ml Ovalbumin coat)
15 | B15 | no binding (tested: 10 µg/ml Ovalbumin coat)
16 | B16 | no binding (tested: 10 µg/ml Ovalbumin coat)
17 | B17 | no binding (tested: 10 µg/ml Ovalbumin coat)
18 | B18 | no binding (tested: 10 µg/ml Ovalbumin coat)
19 | B19 | no binding (tested: 10 µg/ml Ovalbumin coat)
